± gives the uncertainty stated by the source.
Assay: amyloid nucleation score (Sup35N fusion, yeast selection) (log enrichment); library NNK3; higher = more nucleation; inactive = no reads after selection
Method in brief: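 The nucleation score is a DiMSum log enrichment of output over input reads, centred on the mode score of non-aggregating sequences. Sequences under 100 input reads were excluded, and reads came from Illumina sequencing of plasmid inserts. Psi-negative yeast expressing Sup35N fused to peptides of 20 random codons were induced with 100 μM copper sulfate for 24 hours and grown 7 days at 30°C on medium lacking adenine and uracil. Random libraries had three technical output replicates.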

Row | Substance | amyloid nucleation score
1 | HDARGLIIFARSHSAESRVR | inactive
2 | HDDISISESIFRRLQIRVIL | inactive
3 | HEGPKKEGLLAYVKVKRLRR | inactive
4 | HEQDVAPKCWMYVELNQLGW | 0.688 ± 0.2
5 | HERILATGVFEMDLGMLVFR | inactive
6 | HEVAAPRRRHSSMLVAGSAG | inactive
7 | HFGYSGFDYYICTRY | 0.049 ± 0.27
8 | HFKSESRFTN | inactive
9 | HFLFSNQNIRSLNIVFNSRV | 2.2 ± 0.073
10 | HFNEEGAQ | -0.309 ± 1.1
11 | HFRIKNTCFKRCLSVESRKY | inactive
12 | HFVVKV | 1.27 ± 0.089
13 | HGILEWMDCVLTLFTRVGMS | inactive
14 | HGPRLLTSKVRFWRKTLRST | inactive
15 | HHHRLARTPHDIVPRQKLVV | inactive
16 | HHIFVFQGLASLNLHTDWML | 1.62 ± 0.1
17 | HHKMVISVSSRNQSEKRSDW | inactive
18 | HHLSSDVSVLAFCNLPESNR | 1.21 ± 0.17
19 | HIHEDWFFS | inactive
20 | HILWHTSSSGELLPMSP | inactive
21 | HINDAYTCVMLYMGLTRWTI | inactive
22 | HISYNHIGEYVKKSDFECSN | inactive

Row | Substance | amyloid nucleation score
23 | HIVLLKCIQAAETVAGFKW | inactive
24 | HIWGIRKCDPPLTVVMFQSL | inactive
25 | HKDICLNFSVDHLDVMSQCA | inactive
26 | HKNEVKWFFFQPGKEMLGGR | inactive
27 | HKSINVIRDPGKIVFLTEVI | inactive
28 | HLCWNRQGNDRRELKSRWRK | inactive
29 | HLDQNLWPKQKQAHTLRTKW | inactive
30 | HLLTAVILITIGVNRVTWWG | inactive
31 | HLSRNVRLS | inactive
32 | HLSTRLARFPLL | inactive
33 | HMDSWSYWVIVV | inactive
34 | HNCLVLVCDTCLSVYWNFSS | 2.83 ± 0.052
35 | HNDSYRMWGRGPPIVLT | inactive
36 | HNITPESAKVCKVRRCLGSD | 0.619 ± 0.2
37 | HNMNR | inactive
38 | HNPVG | 1.23 ± 0.08
39 | HNRLSQVTDQLGRLVSRSLR | inactive
40 | HNSQLWLVPSVFTKRLCHIN | inactive
41 | HPWEARGHPVLHERRNLHSI | inactive
42 | HQGFE | inactive
43 | HQVKVIVCCVTYVVQYVVMM | inactive
44 | HRHNVGLCCAGDWHLVELGS | 2.06 ± 0.064

Row | Substance | amyloid nucleation score
45 | HRIRVVENLPHCVLSSRMPL | inactive
46 | HRREMSHCKREPWKSINFYW | inactive
47 | HSAVE | inactive
48 | HSDMLDYVSMVFFMVIRAGM | inactive
49 | HSFREYKRVNLYYPFYKDCL | 0.467 ± 0.13
50 | HSRGENR | inactive
51 | HSRLFLGNVTCYWVHEVSLI | inactive
52 | HSSKSTGTYFGNMS | inactive
53 | HSWNFGVCG | 0.229 ± 0.2
54 | HTESTGLSTPWVHL | inactive
55 | HTFYFYSMSSGFKRHETTSG | inactive
56 | HTGMHCTMGESRTSV | 0.375 ± 0.18
57 | HTILENFSSLVVMRDGRRNG | -0.275 ± 0.52
58 | HTTIQETFVRIPRLCRWHRR | inactive
59 | HVGCLIYDIQCETPGSHPSR | inactive
60 | HVIFFYILAFYNHSMGRTAV | inactive
61 | HVMGANREPF | inactive
62 | HVNSMA | inactive
63 | HVTIYGPET | inactive
64 | HVVVFDYLLSVLCIVDRVEG | inactive
65 | HWGHVHLVIRLPVMPDSDNR | inactive
